Data: the DeepSol protein solubility set

assay: soluble on expression in E. coli; label from the status in PepcDB or PDB records

Sequence | soluble on expression in E. coli
MEIIRSNFKINLHKVYQAIEEADFFAIDGEFSGISNGPSVTALTSGFDTPEERYQKLKKHSMDFLLFQFGLCAFKYDHTDSKHVTKSFNFYVFPKPFSRSSPDVKFVCQSSSIDFLASQGFDFNKVFCSGIPYLNQEEERQLREQFDEKRSQANGAGALAKCPVTIPEDQKKFIDQVIEKIEDFLQSEEKRSLELDPCTGFQRKLIYQTLSWKYPKGIHVETLETDKKERHIVISKVDEEERKRREQEKYTKEQEELNDAVGFSRVIHAIANSGKLVVGHNMLLDVMHTIHQFYCPLPADLNEFKEMAICVFPRLLDTKLMASTQPFKDIINNTSLAELEKRLKETPFDPPKVESAEGFPSYDTASEQLHEAGYDAYITGLCFISMANYLGSLLSPPKMCVSARSKLIEPFFNKLFLMRVMDIPYLNLEGPDLQPKRDHVLHVTFPKEWKTSDLYQLFSAFGNIQISWIDDTSAFVSLSQPEQVQIAVNTSKYAESYRIQTYAEYVGKKQKGKQVKRKWTEDSWKEVDRKRPHMQGPCYHSNSFTAAGMLGKRTLSPDPREAALEDRESEEVSDSELEQTDSCTDPLPEGRKKSKKLKRMKKELSLAGSVSDSPAVLFEVPDTW | soluble
MEIKRQQEIVEAYHYDMRVPDSEVETDLRVSFSPIEVEEENYPENSSALVARLEFRIVFDEFVLSGAISQINHIIDRKIEKQEDISQEEVDELVRPLFSIVERLSYEVTEIALDRPGVQLNFQQSEEA | not soluble
MEKIIVRGGKQLNGSVKMEGAKNAVLPVIAATLLASKGTSVLKNVPNLSDVFTINEVLKYLNADVSFVNDEVTVDATGEITSDAPFEYVRKMRASIVVMGPLLARTGSARVALPGGCAIGSRPVDLHLKGFEAMGAVVKIENGYIEATAEKLVGAKVYLDFPSVGATQNIMMAATLAEGTTVIENVAREPEIVDLANFLNQMGARVIGAGTEVIRIEGVKELTATEHSIIPDRIEAGTFMIAAAITGGNVLIEDAVPEHISSLIAKLEEMGVQIIEEENGIRVIGPDKLKAVDVKTMPHPGFPTDMQSQMMVIQMLSEGTSIMTETVFENRFMHVEEMRRMNADMKIEGHSVIISGPAKLQGAEVAATDLRAAAALILAGLVADGYTQVTELKYLDRGYNNFHGKLQALGADVERVDDSKVDVTNLASLF | not soluble
MEKIKYGFGEIEAAASDIQSTSGRINSLLEDLKAHIRPMAAAWEGESAQAYNEAQQQWDSSAAELNTILSTISNTVRQGNDRMSEVNRMAAASWS | not soluble
MEKKIGFIGCGNMGKAILGGLIASGQVLPGQIWVYTPSPDKVAALHDQYGINAAQSAQEVAQVADIVFGAVKPGIMVKVLSEISSSLNKDSLVVSIAAGVTLDQLARALGHDRKIIRAMPNTPSLVNAGMTSVTPNALVTPEDTADVLNIFRCFGGAEVIAEPMIHPVVGVSGSSPAYVFMFIEAMADAAVLGGMPRAQAYKFAAQAVMGSAKMVLETGKHPGELKDMVCSPGGTTIEAVRVLEERGFRAAVIEAMTKCMEKSEALSKSLEHHHHHH | soluble
MEKKITGYTTVDISQWHRKEHFEAFQSVAQCTYNQTVQLDITAFLKTVKKNKHKFYPAFIHILARLMNAHPEFRMAMKDGELVIWDSVHPCYTVFHEQTETFSSLWSEYHDDFRQFLHIYSQDVACYGENLAYFPKGFIENMFFVSANPWVSFTSFDLNVANMDNFFAPVFTMGKYYTQGDKVLMPLAIQVHHAVCDGFHVGRMLNELQQYCDEWQGGA | soluble
MEKKVGTDRVKRGMAQMQKGGVIMDVVNAEQAKIAEEAGAVAVMALERVPSDIRAAGGVARMADPRIVEEVMNAVSIPVMAKARIGHITEARVLEAMGVDYIDESEVLTPADDEFHLLKSDFTVPFVCGCRDIGEALRRIGEGAAMLRTKGEPGTGNIVEAVRHMRQVNGQIRQIASMTDDELMVAAKNFGAPYELVKEIKTLGKLPVVNFAAGGVATPADAALMMELGADGVFVGSGIFKSDNPAKFASAIVQATTYYTDYE | not soluble
MEKKVLLTGFDPFGGETVNPSWEAVKRLNGAAEGPASIVSEQVPTVFYKSLAVLREAIKKHQPDIIICVGQAGGRMQITPERVAINLNEARIPDNEGNQPVGEDISQGGPAAYWTGLPIKRIVEEIKKEGIPAAVSYTAGTFVCNHLFYGLMDEISRHHPHIRGGFIHIPYIPEQTLQKSAPSLSLDHITKALKIAAVTAAVHEDDIETGGGELH | soluble
MEKLENFWTRDELNTFFDYVTPERDVEQFTMFRVLAYSGIRKGELLALTWKDINFEDNTLRVNKTLTQGLGGKLIVQPPKSRAGRRTIDLDDSTMRYLRQWKGVQRETFLGMGFNTNNVDQLVFASNRNHFRSMNTPTKWLNKAIKATGLKHISIHGFRHTHASLLYQSGVGLKETQQRLGHSRADSSVTLDVYTHTTEQQNVAALQRFENYVEAKLEHHHHHH | not soluble
MEKNKLRKVGLTALEWLKQHPEIKQHKESSLYEQLFASQQWQQAQTIGMIRSLPLELSTQPIFERAMQESKQVAVPRTFKGGKMHFYQVFPETVYDTSAFGVEEPPLTAAEITATAIDLLIVPGIVFNRAGYRIGFGGGFYDRYLEHFSGHSCSLVFSEQLHEQWQPEAFDQPIEQLFIQLEHHHHHH | not soluble
MEKPHVVSLIGGFGYREPIFRKVLTTAMLDPGINYTLISGPSLDPSKLGGVPKNVRILNFVEDTYPYIKSSDAVIAPGGHSTIMEALSFGVPILSFPDEGHSEQESNAAVVEEEGYGRMLSYSTPPEVILECIREVIEDEAYRNKVERLQRLSGELEHHHHHH | not soluble
MEKSAGRGRPSVSVERIVATALEAVDEVGAQAFNMRMLAERLGSGTATLYRHFASKDEILIYVVDSVLGELLADQPEAVELVPQGQGSEGYSWQKACASGAERLYGVLRRHPGILPLLVSQIPIGPNGLKRREQGIALFLANGFPAELAARAYTSVAHYVLGFAIQQHSSASSEAAEGEELVEFFAALDASEYPAIATAGRHLPGISVEEEFRFGLKLIIDGLELAASAWRKADGC | not soluble
MEKTTEGAFYTREYRNLFKEFGYSEAEIQERVKDTWEQLFGDNPETKIYYEVGDDLGYLLDTGNLDVRTAGMSYGMMMAVQMDRKDIFDRIWNWTMKNMYMTEGVHAGYFAWSCQPDGTKNSWGPAPDGEEYFALALFFASHRWGDGDEQPFNYSEQARKLLHTCVHNGEGGPGHPMWNRDNKLIKFIPEVEFSDPSYHLPHFYELFSLWANEEDRVFWKEAAEASREYLKIACHPETGLAPEYAYYDGTPNDEKGYGHFFSDSYRVAANIGLDAEWFGGSEWSAEEINKIQAFFADKEPEDYRRYKIDGEPFEEKSLHPVGLIATNAMGSLASVDGPYAKANVDLFWNTPVRTGNRRYYDNCLYLFAMLALSGNFKIWFPEGQEEEHLEHHHHHH | soluble
MEKVNEILSQLTLEEKVKLVVGVGLPGLFGNPHSRVAGAAGETHPVPRVGLPAFVLADGPAGLRINPTRENDENTYYTTAFPVEIMLASTWNRELLEEVGKAMGEEVREYGVDVLLAPAMNIHRNPLCGRNFEYYSEDPVLSGEMASSFVKGVQSQGVGACIKHFVANNQETNRMVVDTIVSERALREIYLRGFEIAVKKSKPWSVMSAYNKLNGKYCSQNEWLLKKVLREEWGFEGFVMSDWYAGDNPVEQLKAGNDLIMPGKAYQVNTERRDEIEEIMEALKEGKLSEEVLDECVRNILKVLVNAPSFKNYRYSNKPDLEKHAKVAYEAGAEGVVLLRNEEALPLSENSKIALFGTGQIETIKGGTGSGDTHPRYAISILEGIKERGLNFDEELAKTYEDYIKKMRETEEYKPRRDSWGTIIKPKLPENFLSEKEIHKLAKKNDVAVIVISRISGEGYDRKPVKGDFYLSDDETDLIKTVSREFHEQGKKVIVLLNIGSPVEVVSWRDLVDGILLVWQAGQETGRIVADVLTGRINPSGKLPTTFPRDYSDVPSWTFPGEPKDNPQKVVYEEDIYVGYRYYDTFGVEPAYEFGYGLSYTTFEYSDLNVSFDGETLRVQYRIENTGGRAGKEVSQVYIKAPKGKIDKPFQELKAFHKTRLLNPGESEEVVLEIPVRDLASFNGEEWVVEAGEYEVRVGASSRNIKLKGTFSVGEERRFKP | soluble
MEKYEELFARIKEKAKLIDEKIFELIPEKDPRVLYEAARHYPLAGGKRVRPFVVLTSTEAVGGDPLRAIYPAVAIELIHNYSLVHDDIMDMDETRRGKPTVHRIWGVNMAILAGDLLFSKAFEAVARAEIPPEKKARVLEVIVKASNELCEGQARDLEFEKKSTVTIEEYMEMISGKTGALFEASAKVGGIIGTDNEEYIKALSSWGRNVGIAFQIWDDVLDLIADEKKLGKPVGSDIRKGKKTLIVAHFFENADEKDKQRFLKIFGKYAGDVKGRGIIEEDIKSDVMEAIDLLKKYGSIDYAAEIAKDMIKKANEALRILPKSKARMDLELLAKFIVEREY | soluble
MELKKRSEFPENELWDLTALYKDRQDFLLAIEKALQDIDLFKRNYEGRLTSVDDFTQALIEIEHIYIQMSHIGTYAFMPQTTDFSDESFAQIAQAGDDFMTKASVALSFFDTALANADLDVLDTLEKNPYFSAAIRMAKIQKEHLLSPDVEKALANLREVINAPYDIYTKMRAGDFDMDDFEVDGKTYKNSFVSYENFYQNHENAEIREKAFRSFSKGLRKHQNTAAAAYLAKVKSEKLLADMKGYASVFDYLLAEQEVDRSLFDRQIDLIMTEFGPVAQKFLKHVAQVNGLEKMTFADWKLDIDNDLNPEVSIDGAYDLVMKSLAPLGQEYTKEIERYQTERWVDFAANANKDSGGYAADPYKVHPYVLMSWTGRMSDVYTLIHEIGHSGQFIFSDNHQSYFNTHMSTYYVEAPSTFNELMLSDYLEHQFDDPRQKRFALAHRLTDTYFHNFITHLLEAAFQRKVYTLIEEGGTFGADQLNAMMKEVLTDFWGDAVDIDDDAALTWMRQAHYYMGLYSYTYSAGLVISTAGYLNLKHNPNGAKEWLDFLKSGGSRTPLDTAMLIGADIATEKPLRDTIQFLSDTVDQIISYTEDMSHA | soluble
MELKPTAPPIFTGRPFVVAWDVPTQDCGPRLKVPLDLNAFDVQASPNEGFVNQNITIFYRDRLGLYPRFDSAGRSVHGGVPQNVSLWAHRKMLQKRVEHYIRTQESAGLAVIDWEDWRPVWVRNWQDKDVYRRLSRQLVASRHPDWPPDRIVKQAQYEFEFAAQQFMLETLRYVKAVRPRHLWGFYLFPDCYNHDYVQNWESYTGRCPDVEVARNDQLAWLWAESTALFPSVYLDETLASSRHGRNFVSFRVQEALRVARTHHANHALPVYVFTRPTYSRRLTGLSEMDLISTIGESAALGAAGVILWGDAGYTTSTETCQYLKDYLTRLLVPYVVNVSWATQYCSRAQCHGHGRCVRRNPSASTFLHLSTNSFRLVPGHAPGEPQLRPVGELSWADIDHLQTHFRCQCYLGWSGEQCQWDHRQAAGGASEAWAGSHLTSLLALAALAFTWTL | not soluble
MELLRPEATVLSLGRRVLSFDREGRPYHYFREGKTYKRALDGSLHLRYREGERRRRRLAPEEALGVYQEVLDLAEAHLRDERRREEVLRWTPEGLLDPTPYRRAYAWPVSILPPDAYLSVVLQATTGCTWNRCAFCSFYQDRPFQKRTPEAFREHIQAVLALLGRGRLLRRGVFLADGNALALSEPLLPLLELVRAHFPGEPVMGFLDLFTGLKKAPSWWERLGGMGLRRVYIGLETGHAPLLALLRKPGHPKEVLPLVRALKSSGLSVGVILMVGSGGKAFAEAHFRESLALLAELPLGRGDVVYLSPFREDPGTPYAALGLAPLEDLEGELQRWAQAVRRLGLRASRYEIRE | soluble
MELTAVPATQFSSVQLTDILNACFEAYLVPVTQSVEGFVQRFSAEGMSLVDSRVWLAGDEPAAIAIVARRGSAARLAAFALRPAWRGKGLGRKLMQELLMLLQQQGIETVYLEVIRDNHAAVALYQSLGFTRRYGLCGYLSTELLAPVPGVLQLYPTLSLLRRAIEESNSQLPWLLDPLTFATLPCQVVTLEQRAFAVLTTAGSRPVLSFLWVEPAARRQGLARELLMALAQQFPGIGTSVTVPETFTPLFAAAGYTPLSLQQYEMTMDLADAKSA | not soluble
